B1: tissue factor (TF): TFN11A (protein)
parent chain: METPAWPRVPRPETAVARTLLLGWVFAQVAGASGTTNTVAAYNLTWKSTNFKTILEWEPKPVNQVYTVQISTKSGDWKSKCFYTTDTECDLTDEIVKDVKQTYLARVFSYPAGNVESTGSAGEPLYENSPEFTPYLETNLGQPTIQSFEQVGTKVNVTVEDERTLVRRNNTFLSLRDVFGKDLIYTLYYWKSSSSGKKTAKTNTNEFLIDVDKGENYCFSVQAVIPSRTVNRKSTDSPVECMGQEKGEFREIFYIIGAVVFVVIILVIILAISLHKCRKAGVGQSWKENSPLNVS
B2: tissue factor (TF): TFN11A/N124A/N137A (protein)
parent chain: B1 parent chain
B3: tissue factor (TF): TFN11A/N137A (protein)
parent chain: B1 parent chain
B4: tissue factor (TF): TFN11A/N124A/N137A-GFP (protein)
parent chain: B1 parent chain
B5: tissue factor (TF): TFN11A/N124A (protein)
parent chain: B1 parent chain
B6: tissue factor (TF): tunicamycin (protein)
parent chain: B1 parent chain

What was measured:
[1] = FX activation assay, CHO cell surface; settings: glycan lost; control: wild-type TF-GFP
[2] = CHO lysates, GFP immunoblot and GFP fluorescence; settings: glycan lost; control: wild-type TF-GFP
[3] = cell-surface TF antigen, radiolabelled mAb binding, CHO; settings: glycan lost; control: wild-type TF-GFP
[4] = FX activation assay, HUVEC surface; settings: glycan lost; control: wild-type TF-GFP
[5] = FX activation in freeze-thaw HUVEC lysates; settings: glycan lost; control: wild-type TF-GFP
[6] = confocal microscopy, GFP and TF immunostaining, HUVEC; settings: glycan lost; control: wild-type TF-GFP
TF antigen ELISA, PBMC = settings: glycan lost; control: LPS-stimulated PBMC without tunicamycin
[7] = FX activation on intact PBMC; settings: glycan lost; control: LPS-stimulated PBMC without tunicamycin

Protein | enzymatic_activity [1] | expression_or_secretion [2] | localisation_or_trafficking [3] | enzymatic_activity [4] | enzymatic_activity [5] | localisation_or_trafficking [6] | expression_or_secretion (TF antigen ELISA, PBMC) | enzymatic_activity [7]
B1 | no change | no change | no change |  |  |  |  | 
B2 | no change | no change | no change |  |  |  |  | 
B3 | no change | no change | no change |  |  |  |  | 
B4 |  |  |  | no change | no change | no change |  | 
B5 | no change | no change | no change |  |  |  |  | 
B6 |  |  |  |  |  |  | no change | no change

Source: paper PMC4225772
